One experiment has as its target D2-14-N1 (human). In words: SPR. On the technique in general: Surface plasmon resonance follows binding to a sensor surface in real time, without labels.
The target of another experiment is D3-12-N1. As to the kind of experiment: ELISA. For orientation: In an ELISA, binding on a coated surface is turned into a signal by an enzyme label.
A further experiment concerns the target D3-03-N1. In words: ELISA.
The target in a further experiment is D3-24-N1. In words: ELISA.
The target in the next experiment is D1-10-N1. In words: ELISA.
The target of the next experiment is D3-23-N1. As to the kind of experiment: ELISA.
In another experiment the target is D2-14-N1. As to the kind of experiment: ELISA.

Sequence of D2-14-N1 (human) (heavy, as listed by the source): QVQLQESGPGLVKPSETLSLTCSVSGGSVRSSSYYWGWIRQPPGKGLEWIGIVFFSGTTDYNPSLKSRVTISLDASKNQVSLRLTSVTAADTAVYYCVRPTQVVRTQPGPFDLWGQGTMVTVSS

Turning to “recombinant full-length IsdB (natural protein)”, the Kd (usually the free concentration of one partner at which half of the binding sites on the other are occupied at equilibrium, for simple one-to-one binding) with D2-14-N1 (human) was in the range of 4 to 12 pM.
Consider “recombinant full-length IsdB (from UniProt Q2FHV2) Y165R”, for which the percent of parent was 3% with D3-12-N1; 3% with D3-03-N1; 5% in the experiment with D3-24-N1; 3% with D1-10-N1; 3% with D3-23-N1; 3% in the experiment with D2-14-N1.
